Changes are numbered by the printed parent chain. Names may count otherwise.
B1: H1H21227N-N297Q (antibody, human IgG1, V domains shown)
VH: QVQLVQSGAEVKKPGASVKVSCKVSGYTLTELSIHWVRQVPGKGLEWMGGFDPEEGETIFAQEFRDRVTLTEDTSPDTAYMELSSLKSEDAAVYYCTTPRYCNNGICYDYWGQGTLVTVSS
VL: DIQMTQSPSSLSASVGDRVTITCRASQSISNYLNWYQQKPGKAPKLLIYTASSLQSGVPSRFSGSGSGTDFTLTISSLQTEDFATYYCQQSYSNFPITFGQGTRLEIKR
B2: H1H21231N (antibody, human IgG1, V domains shown)
VH: EVQLVESGGGLVQPGGSLRLSCAASGFTFSDHYMDWVRQAPGKGLEWVGRTRNKANSHTTEYTASVTGRFTISRDDSRNSLYLQMNSLKTEDTAVYYCVRAGIIGTLFDYWGQGTLVTVSS
VL: B1 VL with S7F, N31S, Y32F, Y36F, L46F, T50A, T80P, N94S, F95P
B3: H1H21227N-N297D (antibody, human IgG1, V domains shown)
VH: B1 VH
VL: B1 VL
B4: H1H21231N-N297Q (antibody, human IgG1, V domains shown)
VH: B2 VH
VL: B1 VL with S7F, N31S, Y32F, Y36F, L46F, T50A, T80P, N94S, F95P
B5: H1H21227N (antibody, human IgG1, V domains shown)
VH: B1 VH
VL: B1 VL
B6: H1H21234N-N297Q (antibody, human IgG1, V domains shown)
VH: QVQLQESGPGLVKPSETLSLTCTVTGGSISRNYWSWIRQPPGKGLEWIGYIYYSGSIDYNPSLKSRVTISVDTSKNQFSLKLSSMTAADTAVYYCARDRWNWKYGMDVWGQGTTVIVSS
VL: EIVLTQSPGTLSLSPGERATLSCRASQTVRNNYLAWYHQKPGQAPRLLIYGASSRATGIPDRFSGSGSGTDFTLTISRLEPEDFTVYYCHQYGNSPWTFGQGTKMEIKR
B7: H2aM25695N (antibody, mouse IgG2a, V domains shown)
VH: B6 VH with D58N, T73M, S83N, M85V
VL: B6 VL with N32S, T85A, H90Q, N94S, P96Y
B8: H1H21234N (antibody, human IgG1, V domains shown)
VH: B6 VH
VL: B6 VL
B9: H1H27729P-N297Q (antibody, human IgG1, V domains shown)
VH: QVQLVESGGGLVKPGGSLRLSCAASGFIFSDYYMSWIRQAPGKGLEWVSYISSSGTTIYGDSVKGRFTMSRDNAKNSLYLQMNSLRAEDTAVYYCARNYALFDYWGQGTLVTVSS
VL: DIQMTQSPSSLSASVGDRVTITCQASQDISKYLNWYQQKPGKAPKLLIYYTSNLETGVPSRFSGSGSGTDFTFTISSLQPEDIATYYCHQSDYLPFTFGPGTKVDIKR
B10: H1H27734P-N297Q (antibody, human IgG1, V domains shown)
VH: EVQLVESRGGLVQPGGSLRLSCAASGFTFSSYAMSWVRQAPGKGLEWVSAISGSGGSTFYADSVKGRFTISRDNSKNTVYLQMNSLRAEDTAVYYCAKALVLRFLEWLGDYWGQGTLVTVSS
VL: DIQMTQSPSTLSASVGDRVTITCRASQSISSWLAWFQQKPGKAPKLLIYKASSLESGVPSRFSGSGSGTEFTLTISSLQPDDFATYYCQQYKSYWTFGQGTKVEIKR
B11: H1H27747P-N297Q (antibody, human IgG1, V domains shown)
VH: QVQLVESGGAVVQPGRSLRLSCAASGFTFSYYGMHWVRQAPGKGLEWVAVISYDGSKKYYADSVKGRFTISRDNSKNTLYLQMNSLRAEDTAVYYCAKDLTVDFYYGMDVWGQGTTVTVSS
VL: DIQMTQSPSSVSASVGDRVTITCRASQGISSWLAWYQQKPGKAPKLLIYATSSLQSGAPSRFSGSGSGTDFTLTISSLQPEDFATYFCQQANSFPYTFGQGTKLEIKR
B12: H1H27754P-N297Q (antibody, human IgG1, V domains shown)
VH: EVQLVESGGGLVQPGGSLRLSCAASGFTFRTYAMTWVRQAPGKGLDWVSAITGDGGNTYYADSVKGRFTISRDNSKNTLYLQMNSLRAEDTAIYYCAKDQRFSFALYYFDYWGQGTLVTVSS
VL: B11 VL with K42N, T51A, S52F, A58V, F87Y, S93N, Y96W, L104V
B13: H1H27739P-N297Q (antibody, human IgG1, V domains shown)
VH: EVQLVESGGGLVQPGGSLRLSCTASGFTFSSYAMSWVRQAPGKGLEWVSAISGTGSSTYFTDSVKGRFAISRDNSKNTLYLQMNSLRAEDTAVYYCAKDGEWLSTVTLFDYWGQGTLVTVSS
VL: EIVMTQSPATLSVSPGERATLSCRASQSVSSNLAWYQQKPGQAPRLLIYGASTRATGIPARFSGSGSGTDFTLTISSLQSEDFALYYCQQYFIWPPHPTFGPGTKVDIKR
B14: H2aM21229N (antibody, mouse IgG2a, V domains shown)
VH: EVQLVESGGGLVKPGGSLRLSCAASGFTFSRYSMNWVRQAPGKGLEWVSSISSSSSYIYYGDTVKGRFTISRDNAKKSLYLQMNSLRAEDTAVYYCVRDRGQLVLYFDYWGQGTLVTVSS
VL: DIQMTQSPASLSTSIRDRVTITCRASLSISSFLNWFQQRPGKAPKLLIYVASNLQSGVPSRFSDSGSGTDFTLTISSLQPEDFATYYCQQNYSTPPITFGQGTRLEIK

Biological target: full length monkey MSR1 on HEK293.mfMSR1 cells (Macaca fascicularis)
Experiment: ECL cell binding, HEK293.mfMSR1 cells

Chain of full length monkey MSR1 on HEK293.mfMSR1 cells (Macaca fascicularis) (chain, as listed by the source): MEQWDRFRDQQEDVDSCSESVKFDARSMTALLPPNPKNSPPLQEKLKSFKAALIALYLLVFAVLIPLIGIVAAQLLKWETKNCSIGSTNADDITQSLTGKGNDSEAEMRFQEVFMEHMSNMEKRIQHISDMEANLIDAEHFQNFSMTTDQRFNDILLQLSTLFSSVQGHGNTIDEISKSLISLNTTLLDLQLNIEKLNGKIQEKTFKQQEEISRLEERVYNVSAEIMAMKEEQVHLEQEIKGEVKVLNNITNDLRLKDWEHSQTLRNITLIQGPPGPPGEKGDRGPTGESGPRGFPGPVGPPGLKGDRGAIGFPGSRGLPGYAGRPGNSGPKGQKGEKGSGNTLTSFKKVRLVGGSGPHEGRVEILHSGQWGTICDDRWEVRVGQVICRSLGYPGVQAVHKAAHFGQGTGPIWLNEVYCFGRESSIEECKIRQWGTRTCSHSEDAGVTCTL

| ratio of 11 nM antibody binding signal (RLU) to isotype control | Binder |
| --- | --- |
| 23 | B1 |
| 75 | B2 |
| 25 | B3 |
| 69 | B4 |
| 26 | B5 |
| 35 | B6 |
| 45 | B7 |
| 31 | B8 |
| 6 | B9 |
| 28 | B10 |
| 21 | B11 |
| 53 | B12 |
| 20 | B13 |

Biological target: full length human MSR1 with a C-terminal Myc tag on HEK293.Myc.hMSR1 cells (human) (UniProt P21757)
Experiment: ECL cell binding, HEK293.Myc.hMSR1 cells

Chain of full length human MSR1 with a C-terminal Myc tag on HEK293.Myc.hMSR1 cells (human) (P21757 whole entry): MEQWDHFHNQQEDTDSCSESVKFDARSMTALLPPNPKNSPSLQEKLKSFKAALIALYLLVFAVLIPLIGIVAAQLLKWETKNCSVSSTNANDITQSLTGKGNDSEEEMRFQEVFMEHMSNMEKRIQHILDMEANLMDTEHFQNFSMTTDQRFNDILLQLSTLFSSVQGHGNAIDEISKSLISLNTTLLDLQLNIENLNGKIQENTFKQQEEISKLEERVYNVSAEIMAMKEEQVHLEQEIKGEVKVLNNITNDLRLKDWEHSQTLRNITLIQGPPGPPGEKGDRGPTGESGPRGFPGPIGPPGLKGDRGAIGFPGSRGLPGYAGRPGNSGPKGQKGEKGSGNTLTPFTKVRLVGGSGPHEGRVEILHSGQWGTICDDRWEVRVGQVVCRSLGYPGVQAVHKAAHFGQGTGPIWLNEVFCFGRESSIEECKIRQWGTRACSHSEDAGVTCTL

| ratio of 11 nM antibody binding signal (RLU) to isotype control | Binder |
| --- | --- |
| 37 | B1 |
| 61 | B2 |
| 34 | B3 |
| 64 | B4 |
| 37 | B5 |
| 78 | B14 |
| 43 | B6 |
| 35 | B7 |
| 32 | B8 |
| 17 | B9 |
| 40 | B10 |
| 26 | B11 |
| 55 | B12 |
| 22 | B13 |

Biological target: mouse MSR1 on RAW264.7 cells (mouse) (UniProt P30204)
Experiment: flow cytometry, RAW264.7 cells, 10 ug/mL

Chain of mouse MSR1 on RAW264.7 cells (mouse) (P30204 whole entry): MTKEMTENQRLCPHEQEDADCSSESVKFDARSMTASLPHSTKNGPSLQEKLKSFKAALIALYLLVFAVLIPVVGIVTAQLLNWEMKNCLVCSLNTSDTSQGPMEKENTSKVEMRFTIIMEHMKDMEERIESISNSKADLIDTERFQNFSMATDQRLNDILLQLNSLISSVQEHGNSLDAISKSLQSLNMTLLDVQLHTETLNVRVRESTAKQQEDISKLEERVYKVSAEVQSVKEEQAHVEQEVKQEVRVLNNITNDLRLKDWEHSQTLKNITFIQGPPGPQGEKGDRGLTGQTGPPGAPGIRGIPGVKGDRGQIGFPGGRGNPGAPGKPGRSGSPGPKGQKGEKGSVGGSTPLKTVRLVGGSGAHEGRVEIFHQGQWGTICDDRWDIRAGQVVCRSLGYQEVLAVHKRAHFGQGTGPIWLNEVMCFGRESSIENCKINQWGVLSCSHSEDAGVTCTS

| MFI | S/N | Binder |
| --- | --- | --- |
| 12800 | 5 | B1 |
| 3580 | 1 | B4 |
| 7050 | 3 | B6 |
| 3480 | 1 | B9 |
| 4780 | 1 | B10 |
| 3630 | 1 | B11 |
| 5410 | 1 | B12 |
| 3270 | 1 | B13 |

Biological target: endogenously expressed human MSR1 on PMA-treated THP-1 cells (human) (UniProt P21757)
Experiment: ECL cell binding, PMA-treated THP-1 cells

Chain of endogenously expressed human MSR1 on PMA-treated THP-1 cells (human) (P21757 whole entry): as the sequence (P21757 whole entry) above

| ratio of 11 nM antibody binding signal (RLU) to isotype control | Binder |
| --- | --- |
| 5 | B1 |
| 42 | B2 |
| 6 | B3 |
| 45 | B4 |
| 7 | B5 |
| 56 | B14 |
| 25 | B6 |
| 8 | B7 |
| 18 | B8 |
| 8 | B9 |
| 21 | B10 |
| 13 | B11 |
| 66 | B12 |
| 9 | B13 |

Biological target: human MSR1 extracellular domain expressed with a N-terminal nonahistidine tag (His9-hMSR1; R&D Systems, Cat #2708-MS) (human) (UniProt P21757)
Experiment: competition ELISA; 100 nM antibody, competitor Ac-LDL, plate-coated His9-hMSR1

Chain of human MSR1 extracellular domain expressed with a N-terminal nonahistidine tag (His9-hMSR1; R&D Systems, Cat #2708-MS) (human) (P21757 other isoform, or with tags, fused parts or gaps): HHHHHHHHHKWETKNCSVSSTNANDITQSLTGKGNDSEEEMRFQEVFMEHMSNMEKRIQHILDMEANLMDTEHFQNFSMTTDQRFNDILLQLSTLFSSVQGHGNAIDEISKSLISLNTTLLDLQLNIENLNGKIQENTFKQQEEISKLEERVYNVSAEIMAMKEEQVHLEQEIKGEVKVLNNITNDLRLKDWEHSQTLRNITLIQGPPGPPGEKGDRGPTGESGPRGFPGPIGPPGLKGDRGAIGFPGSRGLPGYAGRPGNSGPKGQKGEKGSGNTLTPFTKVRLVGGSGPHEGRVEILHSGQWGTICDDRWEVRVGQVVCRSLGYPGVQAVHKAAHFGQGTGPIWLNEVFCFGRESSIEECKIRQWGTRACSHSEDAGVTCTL

| % Blocking [%] | Binder |
| --- | --- |
| 105 | B1 |
| -62 | B2 |
| 101 | B3 |
| -60 | B4 |
| 105 | B5 |
| -11 | B14 |
| 75 | B6 |
| 65 | B7 |
| 70 | B8 |
| 8 | B9 |
| -38 | B10 |
| -44 | B11 |
| -42 | B12 |
| -47 | B13 |

Biological target: human MSR1 extracellular domain expressed with a N-terminal nonahistidine tag (His9-hMSR1; R&D Systems, Cat #2708-MS) (human) (UniProt P21757)
Experiment: competition ELISA; 1 µM antibody, competitor 10 nM Ox-LDL, plate-coated His9-hMSR1

| % Blocking [%] | Binder |
| --- | --- |
| 36 | B9 |
| -15 | B10 |
| -31 | B11 |
| -44 | B12 |
| -41 | B13 |

Biological target: human MSR1 extracellular domain expressed with a N-terminal nonahistidine tag (His9-hMSR1; R&D Systems, Cat #2708-MS) (human) (UniProt P21757)
Experiment: competition ELISA; 500 nM antibody, competitor 5 nM Ox-LDL, plate-coated His9-hMSR1

| % Blocking [%] | Binder |
| --- | --- |
| 38 | B14 |

Biological target: human MSR1 extracellular domain expressed with a N-terminal nonahistidine tag (His9-hMSR1; R&D Systems, Cat #2708-MS) (human) (UniProt P21757)
Experiment: competition ELISA; 300 nM antibody, competitor biot-AGE-BSA, plate-coated His9-hMSR1

| % Blocking [%] | Binder |
| --- | --- |
| 96 | B1 |
| -44 | B2 |
| 97 | B3 |
| -50 | B4 |
| 99 | B5 |
| 3 | B14 |
| -27 | B6 |
| 16 | B7 |
| 21 | B8 |
| 15 | B9 |
| -4 | B10 |
| -2 | B11 |
| -9 | B12 |
| -9 | B13 |

Biological target: human MSR1 extracellular domain expressed with a N-terminal nonahistidine tag (His9-hMSR1; R&D Systems, Cat #2708-MS) (human) (UniProt P21757)
Experiment: competition ELISA; 500 nM antibody, competitor 10 nM Ox-LDL, plate-coated His9-hMSR1

| % Blocking [%] | Binder |
| --- | --- |
| 97 | B1 |
| 22 | B2 |
| 99 | B3 |
| 26 | B4 |
| 100 | B5 |
| 49 | B6 |
| 96 | B7 |
| 98 | B8 |

From US20230285581A1
